From patent US20260098270
Like-named read-outs stand apart in the source and are kept apart here.

Tests used:
[1] = biological target: Troponin I (cardiac) (UniProt P19429); assay: filter
[2] = biological target: Influenza hemagglutinin H3N2-HA (Influenza A virus) (UniProt P03438); assay: BLI
[3] = biological target: Influenza hemagglutinin H3N2-HA (Influenza A virus) (UniProt P03438); assay: filter; conditions: dot blot
[4] = biological target: Influenza hemagglutinin H5N1-HA (Influenza A virus) (UniProt Q8QPL1); assay: filter
[5] = biological target: Influenza hemagglutinin H1N1-HA (Influenza A virus) (UniProt Q289M7)
[6] = tested on: Control lentivirus without spike; assay: filter; conditions: three identical arms joined by Trebler, dot blot

With “GGCAGCAGGAAGACAAGACATGGGTGGCGGGGACGGGGCGATGGGAACTTAGATTGCTAGTGGTTCTGTGGTTGCTCTGT [TnAp1]” as the sequence, how does the Kd [1] read?
Its Kd is 125 nM.

With “GGCAGCAGGAAGACAAGACATGGGTGGCGGGGACGGGGCGATGGGAACTTAGATTGCTAGTGGTTCTGTGGTTGCTCTGTTTTTTCTCTCGC [Trimeric (trident) TnAp1]” as the sequence, how does the Kd ([1]; three identical arms joined by Trebler, root TTTTT-Biotin) read?
Its Kd is 4 nM.

Which Kd [2] does the source give for “GGGTTTGGGTTGGGTTGGGTTTTTGGGTTTGGGTTGGGTTGGGAAAAA [RHA06]” here?
The Kd was 8 nM.

“GGGTTTGGGTTGGGTTGGGTTTTTGGGTTTGGGTTGGGTTGGGAAAAATTTTTCTCTCGC [Trident RHA06 + antisense 1:1]” was tested. Which Kd ([3]; Trebler-joined arms, antisense DNA of RHA06 hybridised at AS:aptamer 1:1, one arm blocked) did it give?
Its Kd is 0.31 nM.

For “GGGTTTGGGTTGGGTTGGGTTTTTGGGTTTGGGTTGGGTTGGGAAAAATTTTTCTCTCGC [Trident RHA06 + antisense 2:1]”, which Kd ([3]; Trebler-joined arms, antisense DNA of RHA06 hybridised at AS:aptamer 2:1, two arms blocked) is on record?
The Kd was 7.9 nM.

How did the Kd ([3]; three identical arms (SEQ 12) joined by Trebler, root TTTTT-Biotin, RT) turn out when “GGGTTTGGGTTGGGTTGGGTTTTTGGGTTTGGGTTGGGTTGGGAAAAATTTTTCTCTCGC [Trimeric (trident) RHA06]” was run?
The Kd was 0.09 nM.

What about the Kd [4] of the same sequence?
The Kd was 0.13 nM.

What about the Kd ([2]; three identical arms (SEQ 12) joined by Trebler, root TTTTT-Biotin) of the same sequence?
Its Kd is 0.12 nM.

What about the Kd [5] of the same sequence?
Its Kd is 0.07 nM.

With “TTACGTCAAGGTGTCACTCCGTAGGGTTTGGCTCCGGGCCTGGCGTCGGTCGTCTCTCGCGAAGCATCTCTTTGGCGTGTTTTTTTTTTTTTTT [TMSA52]” as the sequence, how does the Kd [6] read?
The Kd was greater than 0.5 nM.
